Measurements: paper doi:10.1101/2022.01.16.476467

Target: CASK_CAMK domain (residues 1-345) (Mus musculus) (UniProt O70589)
Assay: ITC

Question: How did the fold decrease of the interaction against wild-type Caskin1 turn out when Caskin1 CID L378T (domain or fragment) was run?
Answer: 9 fold

Question: How did the fold decrease of the binding against wild-type Caskin1 turn out when “Caskin1 CID L378T/R379H (domain or fragment)” was run?
Answer: 40 fold

Question: Which fold increase in the binding affinity against wild-type LiprinA2 does the source give for “LiprinA2 CID G977E and H983R (domain or fragment)” here?
Answer: 9 fold

Question: For reported Caskin1 peptide, which Kd is on record?
Answer: 6.94 µM

Question: What about the stoichiometry N of the same substance?
Answer: 1
